Measurements as given in IntAct's records for PubMed 21866104.

B1: Golgi to ER traffic protein 1 (Saccharomyces cerevisiae), P53192 (parent)
chain: MHWAAAVAIFFIVVTKFLQYTNKYHEKWISKFAPGNELSKKYLAKVKERHELKEFNNSISAQDNYAKWTKNNRKLDSLDKEINNLKDEIQSENKAFQAHLHKLRLLALTVPFFVFKIMYGKTPVYKLSSSTSTLFPTFVSGVWSQGWLYVLLHPLRTISQKWHIMEGKFGASKFDDMALQSVSLGIWVWALMNVINGVEFIVKQLFLTPKMEAPASVETQEEKALDAVDDAIILD
partner: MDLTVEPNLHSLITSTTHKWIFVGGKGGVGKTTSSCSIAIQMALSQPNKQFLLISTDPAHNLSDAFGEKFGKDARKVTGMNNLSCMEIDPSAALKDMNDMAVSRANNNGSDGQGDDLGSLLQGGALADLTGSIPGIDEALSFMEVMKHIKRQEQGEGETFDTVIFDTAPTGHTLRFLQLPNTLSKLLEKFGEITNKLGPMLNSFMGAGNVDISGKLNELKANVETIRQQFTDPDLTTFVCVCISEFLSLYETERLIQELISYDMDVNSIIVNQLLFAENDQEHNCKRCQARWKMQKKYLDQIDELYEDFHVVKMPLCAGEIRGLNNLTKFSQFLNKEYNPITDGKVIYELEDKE
B2: Golgi to ER traffic protein 2 (Saccharomyces cerevisiae), P40056 (parent)
chain: MSELTEAEKRRLLRERRQKKFSNGGASSRLNKITGQASSHLNAESPLDAPSAAKTTPPASVHSATPDIKEDSNVAPQLDLLKQLAAMQGQGTGKSTPQDSSTPDLLSLLSSMNTGMPSAEGTPSFGQAAPAAPINQAALDYHDYLLNRLKAWTILVKWVFFLLPYLYLITRPNSSVWPAYAFTQSAWFAPLRNPSNFTRIFATFEFLSISIYYQLLKNVEHKSKIKNLQDTNKLVKLVSLVPEGVIPVANLKGKLITLLQYWDLLSMLITDISFVLIVLGLLTYL
partner: B1 partner

Variants of: B1
Conditions: with get3_yeast GET3, Q12154

effect of a mutation on the interaction | Variant
disrupting interaction | R73E

Variants of: B2
Conditions: with get3_yeast GET3, Q12154

effect of a mutation on the interaction | Variant
disrupting interaction | R17E
